From article PMC9605875 (Cell Host & Microbe, 2022)

Molecular target: Wild-type RABV-G, untagged, full length, on transfected Expi293 cells (Rabies virus, Pasteur (PV) ectodomain; …, UniProt P08667, strain)
Assay: flow cytometry on cells
Settings: one partner purified

B1: 1112-1 IgG (antibody, V domains shown)
VH: QVQLQQPGAELLKPGTSMKLSCKASGYTFSNYWMHWVKLRPGQGFEWIGEINPFNGGTNFNEKFKSKATLTVDRSSSTAYMQLSSVTSEDSAVYYCTIPLSDYGDWFFAVWGAGTTVTVSS
VL: DIVMTQSHKFMSTSIGDRVSITCKASQDVSTAVAWYRQKPGQSPKLLIYSASYRSTGVPDRFTGSGSGTDFTFTISSVQAEDLAVFYCQQHYSAPLTFGAGTKLELK
notes: copies: 2 + 2
**Q.** Does B1 bind?
**A.** binds

B2: 17C7 IgG (antibody, V domains shown)
VH: EVQLVESGGGVVQPGRSLRLSCAASGFTFSTYAMHWVRQAPGKGLEWVAVVSYDGRTKDYADSVKGRFTISRDNSKNTLYLQMNSLRTEDTAVYFCARERFSGAYFDYWGQGTLVTVSS
VL: EIVLTQSPATLSLSPGERATLSCRASQSVSSYLAWYQQKPGQAPRLLIYDASNRATGIPARFSGSGSGTDFTLTISSLEPEDFAVYSCQQRNNWPPTFGGGTKVEIK
notes: IgG1; copies: 2 + 2
**Q.** Does B2 bind?
**A.** binds
